Data as given in patent US20200297842A1 (published 2020).

Columns and labels:
[1] = biological target: T1, human SIRPγ expressed on cells (human, UniProt Q9P1W8 29-387); test: flow cytometry on activated human CD3 T cells expressing SIRPγ
T1 construct: Endogenous SIRPγ on Jurkat T-ALL cells and on human CD3+ T cells; also called SIRPγ expressing Jurkat cells; Human T Cells Expressing SIRPγ
Description: (§1) Human CD3 T cells, isolated from peripheral blood mononuclear cells (Astarte Biologics) were incubated in 96-well V-bottom plates at 2.5 \ 10⁵ cells/well for 1 h at 37° C., 5% CO₂ with serial dilutions of SIRP mAbs in binding buffer containing 1 mM EDTA (Sigma Aldrich), 1% FBS (Biowest) in PBS (Corning). The cells were then washed and stained for 45 min under the same conditions with donkey anti-mouse IgG fluorescein isothiocyanate (FITC)-linked secondary antibody (Jackson ImmunoResearch Laboratories). The cells were subsequently stained with anti-CD3 conjugated to 3-carboxy-6,8-difluoro-7-hydroxycoumarin (Pacific Blue) fluorophore (BioLegend) for 30 min on ice, washed and analyzed by flow cytometry (Attune, Life Technologies). Binding was assessed as the median FITC fluorescence intensity of CD3⁺ cells, subtracted from CD3⁺ cells stained with the secondary antibody only. All SIRP antibodies were generated in-house except for LSB2.20 (BioLegend). For activated T cells, prior to the binding assay CD3 T cells were activated for 72 h in a 96-well flat-bottom plate coated with 10 μg/ml anti-CD3 (clone UCHT1; BioLegend), at 1×10⁵ cells/well in the presence of 0.5 μg/ml anti-CD28 (clone CD28.2; BioLegend).

[2] = biological target: T1, human SIRPγ expressed on cells; test: flow cytometry on naive human CD3 T cells expressing SIRPγ
Description: as §1

[3] = biological target: T2, human SIRPα expressed on cells (human, UniProt P78324 31-504); test: flow cytometry on human monocyte-derived dendritic cells; apparent Kd
T2 construct: whole, on cells; Endogenous SIRPα of THP-1 cells and of donor-derived macrophages and dendritic cells; also called SIRPα expressing THP-1 cells; cell-expressed SIRPα on dendritic cells and/or macrophages
Description: (§2) Human CD14⁺ monocytes, isolated from peripheral blood mononuclear cells (Astarte Biologics) were differentiated in vitro for seven days into macrophages or dendritic cells. For macrophage differentiation, monocytes were incubated in AIM-V media (Life Technologies) supplemented with 50 ng/ml M-CSF (Biolegend) for seven days. For dendritic cell differentiation, monocytes were incubated in AIM-V media (Life Technologies) in the presence of 10% human AB serum (Valley Biomedical), 200 ng/ml GM-CSF (Biolegend) and 50 ng/ml IL-4 (Biolegend). The cells were incubated for 1 h at 37° C., 5% CO₂ with serial dilutions of SIRP mAbs in binding buffer containing 1 mM EDTA (Sigma Aldrich) and 1% FBS (Biowest) in PBS (Corning). The cells were then washed and stained for 45 min under the same conditions with donkey anti-mouse IgG fluorescein isothiocyanate (FITC)-linked secondary antibody (Jackson ImmunoResearch Laboratories). The cells were subsequently stained with anti-CD14 or anti-CD11c conjugated to Alexa Fluor 647 fluorophore (Life Technologies and Biolegend, respectively) for 30 min on ice, washed and analyzed by flow cytometry (Attune, Life Technologies). Binding was assessed as the median FITC fluorescence intensity of CD14⁺ or CD11c⁺ cells, subtracted from cells stained with the secondary antibody only.

[4] = biological target: T1, human SIRPγ expressed on cells; test: flow cytometry on naive human CD3 T cells expressing SIRPγ (second column)
Description: as §1

[5] = biological target: T2, human SIRPα expressed on cells; test: flow cytometry on human monocyte-derived macrophages; apparent Kd
Description: as §2

[6] = biological target: T3, Fc tagged human SIRPα (ACRO # SIG-H5251, genotype variant 1) (human, UniProt P78324 31-370, limits assumed); test: ELISA, plate-coated Fc tagged human SIRPα; apparent Kd
T3 construct: Bought protein; also called Fc tagged human SIRP alpha; recombinant human SIRPα; not shown: Fc tag
Description: The binding of anti-SIRP monoclonal antibodies (mAbs) of the present disclosure to SIRP alpha (SIRPα) was determined by solid phase ELISA using an Fc tagged human SIRP alpha. Binding by soluble anti-SIRP antibodies was measured in vitro.
Fc tagged human SIRPα (ACRO # SIG-H5251, genotype variant 1) is adsorbed to high-binding microtiter plates at a concentration of 1 μg/ml diluted in phosphate buffered saline (PBS) overnight at 4° C. The coating solution is removed, the wells are washed and then blocked with 75% casein in PBS containing 0.5% Tween 20 (PBST) for 60 minutes at room temperature while shaking. Blocking solution is removed, the wells are washed and incubated for 60 minutes at room temperature while shaking with either murine or human anti-SIRP mAbs diluted in PBST at a starting concentration of 30 μg/ml and reducing the concentration in 3-fold serial dilutions. Wells are washed three times with PBST and incubated for 60 minutes at room temperature while shaking with an HRP-labeled donkey anti-mouse or anti-human secondary antibody (Jackson ImmunoResearch Laboratories) diluted 1:10,000 in PBST. The wells are washed and then incubated with peroxidase substrate and the absorbance at 450 nm measured. The apparent affinities were calculated using a non-linear fit model (GraphPad Prism).

[7] = biological target: T4, Fc tagged human SIRPγ (ACRO # SIG-H5253) (human, UniProt Q9P1W8 29-360); test: ELISA, plate-coated Fc tagged human SIRPγ; apparent Kd
T4 construct: Bought protein; it includes the transmembrane and cytoplasmic part, which a soluble Fc fusion would not carry; also called Fc tagged human SIRP gamma; recombinant human SIRP gamma; not shown: Fc tag
Description: The binding of anti-SIRP antibodies of the present disclosure to SIRP gamma (SIRPγ) was determined by ELISA using an Fc tagged human SIRPγ. Binding by soluble anti-SIRP antibodies was measured in vitro.
(§3) Fc tagged human SIRPγ (ACRO # SIG-H5253) is adsorbed to high-binding microtiter plates at a concentration of 1 μg/ml in phosphate buffered saline (PBS) overnight at 4° C. The coating solution is removed, the wells are washed and then blocked with 75% casein in PBS containing 0.5% Tween 20 (PBST) for 60 minutes at room temperature while shaking. Blocking solution is removed, the wells are washed and incubated for 60 minutes at room temperature while shaking with anti-SIRP mAbs diluted in PBST at a starting concentration of 30 μg/ml and reducing the concentration in 3-fold serial dilutions. Wells are washed three times with PBST and incubated for 60 minutes at room temperature while shaking with an HRP labeled donkey anti-mouse or anti-human secondary antibody (Jackson ImmonResearch Laboratories) diluted 1:10,000 in PBST. The wells are washed and then incubated with peroxidase substrate and the absorbance at 450 nm determined. The apparent affinities were calculated using a non-linear fit model (GraphPad Prism).

[8] = biological target: T4, Fc tagged human SIRPγ (ACRO # SIG-H5253); test: ELISA, plate-coated Fc tagged human SIRPγ
Description: as §3

[9] = biological target: T1, human SIRPγ expressed on cells; test: flow cytometry on Jurkat cells expressing SIRPγ, increasing mAb concentrations (FIG. 4A)
Description: FIG. 4A-FIG. 4B. Binding of SIRP mAbs to Jurkat T cells Expressing SIRPγ. Binding of SIRP1, SIRP2, SIRP3, SIRP4 and SIRP9 to Jurkat T-ALL cells was determined. Cells were incubated with increasing concentrations of antibody FIG. 4A; or 10 μg/ml of the anti-SIRP antibodies for 1 hr; FIG. 4B. Cells were washed and then incubated with Alexaflour 647-labelled secondary antibody for 1 hr. Cells were washed and antibody binding measured using flow cytometry.
Jurkat cells were incubated for 60 min at 37° C., 5% CO₂ with increasing concentrations of the anti-SIRP mAbs diluted in phosphate buffered saline (PBS), pH 7.2. Cells were then washed with PBS and incubated for an additional hour with Alexa Fluor-647 labeled donkey anti-mouse antibody (Jackson ImmunoResearch Laboratories) in PBS. Cells were washed and binding analyzed using a C6 Accuri Flow Cytometer (Becton Dickinson). Alternatively, the cells were incubated for 1 h at 37° C. with the saturating concentration of 10 μg/ml of SIRP mAbs in binding buffer containing 1 mM EDTA (Sigma Aldrich), 1% FBS (Biowest) in PBS (Corning). The cells were then washed and stained for 45 min under the same conditions with donkey anti-mouse IgG fluorescein isothiocyanate (FITC)-linked secondary antibody (Jackson ImmunoResearch Laboratories). The cells were then washed and analyzed by flow cytometry (Attune, Life Technologies).

T1 sequence (Q9P1W8 29-387): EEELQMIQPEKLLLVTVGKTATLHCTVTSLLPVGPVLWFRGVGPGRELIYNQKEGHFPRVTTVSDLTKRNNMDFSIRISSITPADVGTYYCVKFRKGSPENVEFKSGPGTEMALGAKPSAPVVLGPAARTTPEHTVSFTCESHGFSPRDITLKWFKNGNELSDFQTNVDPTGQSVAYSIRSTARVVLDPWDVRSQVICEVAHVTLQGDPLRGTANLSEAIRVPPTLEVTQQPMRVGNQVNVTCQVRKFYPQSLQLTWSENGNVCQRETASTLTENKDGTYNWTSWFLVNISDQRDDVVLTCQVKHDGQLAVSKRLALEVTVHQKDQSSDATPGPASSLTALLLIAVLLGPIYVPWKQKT
T2 sequence (P78324 31-504): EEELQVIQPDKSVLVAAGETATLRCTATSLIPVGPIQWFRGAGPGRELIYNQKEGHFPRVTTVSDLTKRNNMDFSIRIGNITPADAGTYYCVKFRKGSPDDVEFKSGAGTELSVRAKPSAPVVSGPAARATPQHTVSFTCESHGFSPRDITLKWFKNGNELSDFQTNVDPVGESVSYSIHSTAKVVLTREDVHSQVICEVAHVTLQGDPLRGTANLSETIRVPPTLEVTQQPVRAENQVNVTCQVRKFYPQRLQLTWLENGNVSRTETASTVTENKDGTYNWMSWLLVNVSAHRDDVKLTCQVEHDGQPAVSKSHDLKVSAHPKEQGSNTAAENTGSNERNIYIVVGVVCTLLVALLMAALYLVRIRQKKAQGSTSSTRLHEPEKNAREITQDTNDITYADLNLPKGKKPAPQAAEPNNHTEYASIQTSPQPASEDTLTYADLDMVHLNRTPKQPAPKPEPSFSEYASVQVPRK
T4 sequence (Q9P1W8 29-360 limits assumed): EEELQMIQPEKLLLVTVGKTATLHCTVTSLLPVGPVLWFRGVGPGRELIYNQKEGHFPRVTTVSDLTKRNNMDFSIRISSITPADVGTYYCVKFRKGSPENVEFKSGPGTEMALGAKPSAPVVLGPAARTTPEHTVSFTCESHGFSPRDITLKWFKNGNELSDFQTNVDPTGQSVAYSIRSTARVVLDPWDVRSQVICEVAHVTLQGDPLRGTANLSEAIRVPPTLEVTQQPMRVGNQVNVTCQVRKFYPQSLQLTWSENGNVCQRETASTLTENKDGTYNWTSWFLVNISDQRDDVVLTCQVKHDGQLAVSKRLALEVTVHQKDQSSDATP
T3 sequence (P78324 31-370 limits assumed, change not shown, form in doubt): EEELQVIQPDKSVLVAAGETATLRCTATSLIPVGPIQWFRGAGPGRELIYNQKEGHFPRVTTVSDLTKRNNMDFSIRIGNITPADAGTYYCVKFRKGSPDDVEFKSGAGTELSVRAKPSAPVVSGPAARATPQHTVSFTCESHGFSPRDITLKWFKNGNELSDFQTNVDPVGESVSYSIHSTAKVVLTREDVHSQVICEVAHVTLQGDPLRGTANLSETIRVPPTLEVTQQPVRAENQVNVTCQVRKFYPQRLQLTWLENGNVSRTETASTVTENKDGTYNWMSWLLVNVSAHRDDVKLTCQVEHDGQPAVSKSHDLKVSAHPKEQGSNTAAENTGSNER

Row | Binder | Kd [1] | Kd [2] | Kd [3] | Kd [4] | Kd [5] | Kd [6] | Kd [7] | binding result [8] | binding result [9]
1 | KWAR-23 (antibody, V domains shown) VH: EVQLQQSGAELVKPGASVKLSCTASGFNIKDYYIHWVQQRTEQGLEWIGRIDPEDGETKYAPKFQDKATITADTSSNTAYLHLSSLTSEDTAVYYCARWGAYWGQGTLVTVSS VL: QIVLTQSPAIMSASPGEKVTLTCSASSSVSSSYLYWYQQKPGSSPKLWIYSTSNLASGVPARFSGSGSGTSYSLTISSMEAEDAASYFCHQWSSYPRTFGAGTKLELK | 0.00622 nM | 0.00404 nM | 0.0234 nM | 0.00159 nM | – | – | – | – | –
2 | SIRP9 (antibody, V domains shown, detected with anti-mouse secondary antibody in the cell assays) VH: EVQLQESGAELVRPGASVKLSCKALGYTFTDYEIHWVKETPVYGLEWIGDIHPGSGGTANNQKFKGKATLTADKSSNTAYMELSSLTSEDSAVYYCTRAVSGYYAMDYWGQGTSVTVSS VL: DIQMTQSSSSFSGSLGDRLTINCKASEDIYDRVAWYQQKPGNAPRLLISGTASLETGVLSRFSGSGSGKDYTLSINGLQAEDVATYYCQQYWTTPWTFGGGTKLEIK | 0.263 nM | – | – | 1.41 nM | 0.0937 nM | 0.583 nM | 0.51 nM | – | –
3 | SIRP1 (antibody, mouse IgG1, kappa, V domains shown, Hybridoma-derived mouse mAb) VH: QVQLQQSGAELMKPGASVKISCKATGYSFTKYWIEWVKQRPGHGLEWIGEILPGSVITNYNEKFKGKATFTADTSSNTVYMQLSSLTSEDSAVYYCTKWGLYDSDDGVDYWGQGTTLTVSS VL: ENVLTQSPAIMSASLGEKVTMSCRASSGVNYMYWYQQKSDASPKLLIYYTSILAPGVPARFSGSGSGNSYSLTISSMEGEDAATYYCQQFTSSPYTFGGGTKLEIKR | – | – | – | – | – | – | – | no binding (tested: 30 µg/ml) | no binding
